From patent US20250073303A1, “TDP-43 Interference Peptides, Methods, and Uses Thereof” (The University of British Columbia, priority 2022, published 2025)

Legend:
SH-SY5Y cells = test: MTT assay of SH-SY5Y cells with ethacrynic acid challenge; type: cell-based, human; conditions: ethacrynic acid treatment compared with the control group
Protocol: Cell treatment and peptide blocking assay: Ethacrynic acid (EA) (Sigma, Saint Louis, MO) was dissolved in dimethyl sulfoxide (DMSO) at a stock concentration of 100 mM. For SH-SY5Y cells and HEK-293 cells, ethacrynic acid (EA) was added to the culture medium at 1:1000 to reach a final concentration of 100 μM. The treatment was maintained for 24 hours. For mouse cortical neurons, mature cortical neurons of 14 days in vitro (DIV) were used for experiments. Ethacrynic acid (EA) was added to neurons at a concentration of 20 μM for 5 hours. For peptide treatment in cell culture, the peptides were dissolved in double distilled water at a stock concentration of 10 mM and stored at −80° C. The combination of peptides A, B, C and D at equal concentration of 5 μM for each peptide and 20 μM in total was added into cultures of SH-SY5Y cells or HEK-293 cells one hour before ethacrynic acid treatment or pcDNA3.1-FLAG-CK1δ1-317 transfection. […]
MTT assay: The cell viability of SH-SY5Y cells after treatment of Ethacrynic acid (EA) was determined using the MTT assay (Sigma, Saint Louis, MO). Briefly, MTT solution was added to cells for 3-4 hours at 37° C. at the time when the cell viability was determined. […] On the second day, the plate was shaken for 15 minutes in the dark and absorbance at OD=595 nm was read using a plate reader (Envision 2103 Multilabel Reader, Perkin Elmer).

TDP-43 = TDP-43 (Homo sapiens, UniProt Q13148); test: Peptide blocking of TDP-43 phosphorylation and aggregation in HEK293 cells overexpressing pcDNA3.1-FLAG-CK1δ1-317 (western blotting); type: cell-based; parameters: Endogenous TDP-43 was highly phosphorylated by active CK-1δ (lacking its regulatory domain); endogenous in cells; host or cells: HEK293 cells transfected with pcDNA3.1-FLAG-CK1δ1-317; conditions: HEK293, CK1δ1-317 overexpression
Chain of TDP-43 (Q13148 whole entry, the tested form may be a part): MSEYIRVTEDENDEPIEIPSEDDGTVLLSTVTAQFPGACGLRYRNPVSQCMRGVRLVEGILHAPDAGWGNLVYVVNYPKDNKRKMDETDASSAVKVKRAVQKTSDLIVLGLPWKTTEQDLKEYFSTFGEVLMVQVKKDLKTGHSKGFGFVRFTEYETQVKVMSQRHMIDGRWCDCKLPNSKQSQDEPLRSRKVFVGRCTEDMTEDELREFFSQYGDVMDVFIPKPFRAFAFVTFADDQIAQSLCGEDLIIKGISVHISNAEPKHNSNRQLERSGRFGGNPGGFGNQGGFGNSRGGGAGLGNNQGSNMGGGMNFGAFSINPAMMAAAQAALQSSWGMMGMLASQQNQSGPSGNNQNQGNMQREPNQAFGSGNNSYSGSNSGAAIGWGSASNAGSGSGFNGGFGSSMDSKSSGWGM
Protocol: Cell treatment and peptide blocking assay: Ethacrynic acid (EA) (Sigma, Saint Louis, MO) was dissolved in dimethyl sulfoxide (DMSO) at a stock concentration of 100 mM. For SH-SY5Y cells and HEK-293 cells, ethacrynic acid (EA) was added to the culture medium at 1:1000 to reach a final concentration of 100 μM. The treatment was maintained for 24 hours. For mouse cortical neurons, mature cortical neurons of 14 days in vitro (DIV) were used for experiments. Ethacrynic acid (EA) was added to neurons at a concentration of 20 μM for 5 hours. For peptide treatment in cell culture, the peptides were dissolved in double distilled water at a stock concentration of 10 mM and stored at −80° C. […] The primary cultured neurons were treated with peptide A, B, C and D mixture (equal concentration for each) at a final concentration of 5 μM and 10 μM.
The plasmids were transfected into HEK293 or SH-SY5Y cells using the Lipofectamine 2000 system. Before transfection, cells were plated at 80˜90% confluence and cultured in DMEM containing 10% fetal bovine serum (FBS). […]
Fractionation of cellular soluble and insoluble proteins: Cells or spinal cord tissue were harvested and lysed in 500 μl RIPA buffer [50 mM Tris-HCl pH 7.4; 150 mM NaCl; 1% NP-40; 0.5% Na-deoxycholate; 1 mM EDTA; 50 mM NaF; 1 mM PMSF and protease inhibitor] on ice. […] All the protein samples were further analyzed by Western immunoblotting. […]

Compound | cell death of SH-SY5Y cells (SH-SY5Y cells) | TDP-43 phosphorylation in both the soluble fraction and insoluble fraction (TDP-43; 20 μM every 6 hours for a total of 48 hours) | TDP-43 aggregation induced by CK1δ (TDP-43; 40 μM every 6 hours for a total of 48 hours, compared with 20 μM)
C=C(CC)C(=O)c1ccc(OCC(=O)O)c(Cl)c1Cl [ethacrynic acid] | 69.97% | – | –
ppTDP: peptide covering the T25 site and S403 site of TDP-43, with a linker sequence between the blocking sequences and a TAT sequence (YGRKKRRQRRRDGTVLLGGGGFGSSMDSKSSG) | – | efficiently blocked | did not block TDP-43 aggregation induced by CK1δ more effectively
